4 molecules from PMC13539869, “Dpb11 facilitates the colocalization of Mec1-Ddc2 with its activators on gapped DNA” (Cell reports, 2026) can be followed below.

Data set [1] concerns Dpb11;Mec1;Ddc2;RPA (Saccharomyces cerevisiae;Saccharomyces cerevisiae;Saccharomyces cerevisiae;Saccharomyces cerevisiae). Nature of the data set: single-molecule fluorescence (C-Trap kymographs). Conditions: 5' dual-biotin at both ends; Imaging: 25 mM Tris-HCl pH 7.5, 100 mM NaCl, 10 mM Mg acetate, 2 mM TCEP, 0.1 mM EDTA, 0.04 mg/mL BSA, 1% glycerol, oxygen scavengers; room temperature, no …; scale: % of Mec1-Ddc2 binding events at gap junctions.

In data set [2] the test system is Dpb11;RPA (Saccharomyces cerevisiae;Saccharomyces cerevisiae). Nature of the data set: single-molecule fluorescence (C-Trap kymographs). As to conditions: 5' dual-biotin at both ends; Imaging: 25 mM Tris-HCl pH 7.5, 100 mM NaCl, 10 mM Mg acetate, 2 mM TCEP, 0.1 mM EDTA, 0.04 mg/mL BSA, 1% glycerol, oxygen scavengers; room temperature, no ….
Data set [3] has as its target T1, Sc Dpb11 recombinant protein (unlabeled) (S. cerevisiae), P47027.
T1 chain: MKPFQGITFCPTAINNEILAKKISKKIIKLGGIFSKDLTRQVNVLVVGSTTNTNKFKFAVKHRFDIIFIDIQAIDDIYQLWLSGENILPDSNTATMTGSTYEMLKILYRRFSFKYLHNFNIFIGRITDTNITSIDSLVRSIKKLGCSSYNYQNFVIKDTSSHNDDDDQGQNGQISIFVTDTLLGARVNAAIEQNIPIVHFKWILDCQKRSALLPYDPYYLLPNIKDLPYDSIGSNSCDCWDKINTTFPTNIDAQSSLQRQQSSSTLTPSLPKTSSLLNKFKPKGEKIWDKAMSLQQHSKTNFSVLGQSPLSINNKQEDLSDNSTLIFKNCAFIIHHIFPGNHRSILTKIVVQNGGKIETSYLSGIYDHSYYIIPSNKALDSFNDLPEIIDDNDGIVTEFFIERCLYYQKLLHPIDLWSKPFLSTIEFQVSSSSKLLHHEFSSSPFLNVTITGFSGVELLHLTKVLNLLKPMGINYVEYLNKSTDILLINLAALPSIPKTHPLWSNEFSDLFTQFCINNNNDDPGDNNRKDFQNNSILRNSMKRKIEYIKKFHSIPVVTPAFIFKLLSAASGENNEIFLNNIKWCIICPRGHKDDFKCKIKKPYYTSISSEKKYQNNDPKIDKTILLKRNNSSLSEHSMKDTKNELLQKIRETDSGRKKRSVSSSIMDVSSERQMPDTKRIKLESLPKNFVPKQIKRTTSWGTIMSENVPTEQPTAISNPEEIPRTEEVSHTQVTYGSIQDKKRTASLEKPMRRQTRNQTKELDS
The data set can be described thus: mass photometry; 150 nM Dpb11, label-free, MP Buffer (25 mM Tris-HCl pH 7.5, 250 mM NaCl, 10 mM Mg(CH3COO)2, 2 mM TCEP, 0.1 mM EDTA, 4% glycerol); monomer and dimer. As to conditions: remark: other sources report otherwise.

Data set [4] concerns the target T1, Sc Dpb11 recombinant protein …. Nature of the data set: mass photometry; 50 nM Dpb11, label-free, MP Buffer (25 mM Tris-HCl pH 7.5, 250 mM NaCl, 10 mM Mg(CH3COO)2, 2 mM TCEP, 0.1 mM EDTA, 4% glycerol); monomer and dimer. As to conditions: remark: other sources report otherwise.
Data set [5] concerns the target T2, Mec1-Ddc2^LD555 (Mec1(b)-Ddc2 labeled with LD555) (S. cerevisiae, UniProt P38111 1-2368; Q04377 1-747, fluorophore LD555 (NHS ester) at the N-terminal amine of Mec1-Ddc2; which chain is not told | fluorophore LD555 (NHS ester) at the N-terminal amine of Mec1-Ddc2; which chain is not told).
T2 construct: Mec1, S. cerevisiae; gene synthesized by Biomatik; Ddc2, S. cerevisiae; gene by PCR from genomic DNA of strain S288C; also called fluorescent Mec1-Ddc2; Sc Mec1(b)-Ddc2 recombinant protein; copies: 2 + 2
The data set can be described thus: single-molecule fluorescence imaging (C-Trap, optical tweezers with confocal microscopy); 30 nM fluorescent Mec1-Ddc2, 200 nM unlabeled Dpb11 and 100 nM unlabeled RPA on 3 kb-gapped DNA; distribution of initial binding positions of Mec1-Ddc2; SM Buffer, room temperature, no flow. As to conditions: both partners purified.

In data set [6] the target is T3, Mec1-Ddc2^AF647 (Mec1(a)-Ddc2 labeled with Alexa Fluor 647) (S. cerevisiae, UniProt P38111 1-2368; Q04377 1-747, fluorophore AF647 (NHS ester) at the N-terminal amine of Mec1-Ddc2; which chain is not told | fluorophore AF647 (NHS ester) at the N-terminal amine of Mec1-Ddc2; which chain is not told).
T3 construct: Mec1, S. cerevisiae; gene synthesized by Biomatik; Ddc2, S. cerevisiae; gene by PCR from genomic DNA of strain S288C; Only the Mec1(b) plasmid was deposited (Addgene 240737); Mec1(a) differs in the C-terminal tag region; also called Sc Mec1(a)-Ddc2 recombinant protein; copies: 2 + 2
Described as above. Conditions: both partners purified.

The target of data set [7] is T2, Mec1-Ddc2^LD555 (Mec1(b)-Ddc2 labeled …). Nature of the data set: single-molecule fluorescence imaging, dual-color colocalization (C-Trap); 10 nM Mec1-Ddc2^LD555, 20 nM Dpb11^LD655, 180 nM unlabeled Dpb11 and 100 nM unlabeled RPA on 3 kb-gapped DNA; SM Buffer, room temperature, no flow. As to conditions: both partners purified.

Molecule 3 kb-gapped 19 kb DNA showed a binding signal in data set [1] of 50. Moreover, the binding signal (% of binding events at gap junctions) in data set [2] is 53.

B1: Sc Dpb11 recombinant protein (unlabeled), P47027 1-764 (natural protein)
chain: MKPFQGITFCPTAINNEILAKKISKKIIKLGGIFSKDLTRQVNVLVVGSTTNTNKFKFAVKHRFDIIFIDIQAIDDIYQLWLSGENILPDSNTATMTGSTYEMLKILYRRFSFKYLHNFNIFIGRITDTNITSIDSLVRSIKKLGCSSYNYQNFVIKDTSSHNDDDDQGQNGQISIFVTDTLLGARVNAAIEQNIPIVHFKWILDCQKRSALLPYDPYYLLPNIKDLPYDSIGSNSCDCWDKINTTFPTNIDAQSSLQRQQSSSTLTPSLPKTSSLLNKFKPKGEKIWDKAMSLQQHSKTNFSVLGQSPLSINNKQEDLSDNSTLIFKNCAFIIHHIFPGNHRSILTKIVVQNGGKIETSYLSGIYDHSYYIIPSNKALDSFNDLPEIIDDNDGIVTEFFIERCLYYQKLLHPIDLWSKPFLSTIEFQVSSSSKLLHHEFSSSPFLNVTITGFSGVELLHLTKVLNLLKPMGINYVEYLNKSTDILLINLAALPSIPKTHPLWSNEFSDLFTQFCINNNNDDPGDNNRKDFQNNSILRNSMKRKIEYIKKFHSIPVVTPAFIFKLLSAASGENNEIFLNNIKWCIICPRGHKDDFKCKIKKPYYTSISSEKKYQNNDPKIDKTILLKRNNSSLSEHSMKDTKNELLQKIRETDSGRKKRSVSSSIMDVSSERQMPDTKRIKLESLPKNFVPKQIKRTTSWGTIMSENVPTEQPTAISNPEEIPRTEEVSHTQVTYGSIQDKKRTASLEKPMRRQTRNQTKELDS
In the case of B1, in data set [3], the percent of particles as dimer amounted to 98% and the stoichiometry N was 2. In data set [4], the percent of particles as dimer was 64%, the percent of particles as monomer is 35% and the stoichiometry N was found to be 2.

B2: Sc Dpb11 recombinant protein (unlabeled) (natural protein, S. cerevisiae, UniProt P47027 1-764, looked up)
chain: MKPFQGITFCPTAINNEILAKKISKKIIKLGGIFSKDLTRQVNVLVVGSTTNTNKFKFAVKHRFDIIFIDIQAIDDIYQLWLSGENILPDSNTATMTGSTYEMLKILYRRFSFKYLHNFNIFIGRITDTNITSIDSLVRSIKKLGCSSYNYQNFVIKDTSSHNDDDDQGQNGQISIFVTDTLLGARVNAAIEQNIPIVHFKWILDCQKRSALLPYDPYYLLPNIKDLPYDSIGSNSCDCWDKINTTFPTNIDAQSSLQRQQSSSTLTPSLPKTSSLLNKFKPKGEKIWDKAMSLQQHSKTNFSVLGQSPLSINNKQEDLSDNSTLIFKNCAFIIHHIFPGNHRSILTKIVVQNGGKIETSYLSGIYDHSYYIIPSNKALDSFNDLPEIIDDNDGIVTEFFIERCLYYQKLLHPIDLWSKPFLSTIEFQVSSSSKLLHHEFSSSPFLNVTITGFSGVELLHLTKVLNLLKPMGINYVEYLNKSTDILLINLAALPSIPKTHPLWSNEFSDLFTQFCINNNNDDPGDNNRKDFQNNSILRNSMKRKIEYIKKFHSIPVVTPAFIFKLLSAASGENNEIFLNNIKWCIICPRGHKDDFKCKIKKPYYTSISSEKKYQNNDPKIDKTILLKRNNSSLSEHSMKDTKNELLQKIRETDSGRKKRSVSSSIMDVSSERQMPDTKRIKLESLPKNFVPKQIKRTTSWGTIMSENVPTEQPTAISNPEEIPRTEEVSHTQVTYGSIQDKKRTASLEKPMRRQTRNQTKELDS
notes: Dpb11, S. cerevisiae strain S288C gene; Eluted from the beads with 3xFLAG peptide; no removal of the tag is described; By mass photometry a mixture of monomer and dimer; also called unlabeled Dpb11
As for B2, the binding result in data set [5] and in data set [6] was “binds” throughout.

B3: Dpb11^LD655 (natural protein, S. cerevisiae, UniProt P47027 1-764, looked up)
chain: MKPFQGITFCPTAINNEILAKKISKKIIKLGGIFSKDLTRQVNVLVVGSTTNTNKFKFAVKHRFDIIFIDIQAIDDIYQLWLSGENILPDSNTATMTGSTYEMLKILYRRFSFKYLHNFNIFIGRITDTNITSIDSLVRSIKKLGCSSYNYQNFVIKDTSSHNDDDDQGQNGQISIFVTDTLLGARVNAAIEQNIPIVHFKWILDCQKRSALLPYDPYYLLPNIKDLPYDSIGSNSCDCWDKINTTFPTNIDAQSSLQRQQSSSTLTPSLPKTSSLLNKFKPKGEKIWDKAMSLQQHSKTNFSVLGQSPLSINNKQEDLSDNSTLIFKNCAFIIHHIFPGNHRSILTKIVVQNGGKIETSYLSGIYDHSYYIIPSNKALDSFNDLPEIIDDNDGIVTEFFIERCLYYQKLLHPIDLWSKPFLSTIEFQVSSSSKLLHHEFSSSPFLNVTITGFSGVELLHLTKVLNLLKPMGINYVEYLNKSTDILLINLAALPSIPKTHPLWSNEFSDLFTQFCINNNNDDPGDNNRKDFQNNSILRNSMKRKIEYIKKFHSIPVVTPAFIFKLLSAASGENNEIFLNNIKWCIICPRGHKDDFKCKIKKPYYTSISSEKKYQNNDPKIDKTILLKRNNSSLSEHSMKDTKNELLQKIRETDSGRKKRSVSSSIMDVSSERQMPDTKRIKLESLPKNFVPKQIKRTTSWGTIMSENVPTEQPTAISNPEEIPRTEEVSHTQVTYGSIQDKKRTASLEKPMRRQTRNQTKELDS
modifications: fluorophore LD655 (NHS ester) at the N-terminal amine
notes: Dpb11, S. cerevisiae strain S288C gene; Same protein as m1, labeled; In the dual-color experiment 20 nM of it stood with 180 nM unlabeled Dpb11; also called fluorescent Dpb11; Dpb11 labeled with LD655; source: S. cerevisiae strain OY001, GAL1/10 overexpression, purified (FLAG-Ab beads), then labeled with LD655 NHS
Take B3: the binding result in data set [7] was “binds”.
